We go through one molecule from paper PMC3410656 (Nature structural & molecular biology, 2011).

The experiment addresses blocked SNARE[change] (SNARE[change] with CPXcen residues 48-134 pre-bound) ( | rat | human, UniProt P63027;P32851;P60880-2;O14810). Description: ITC. In general terms: In ITC the heat of successive injections is recorded.

B1: wild-type complexin fragment wtCPX (hCPX1 residues 26-83) (domain or fragment)
chain: KDPDAAKKEEERQEALRQAEEERKAKYAKMEAEREAVRQGIRDKYGIKKKEEREAEAQ
Molecule B1 gave an equilibrium dissociation constant (Kd) of about 10 µM.

What is called Kd is the concentration at which binding is half-saturated.
